Assay results: the supplement of paper PMC9112550, “Optimization of the antimicrobial peptide Bac7 by deep mutational scanning” (BMC Biology, 2022)

Tested on: Escherichia coli TOP10
Assay: shrunken log2 fold change of peptide-encoding DNA abundance (4.5 h post-induction vs induction); higher = less antimicrobial activity (less host growth inhibition)
Details: time post-induction: 4.5 h; library: site-saturation at positions 5, 18, 19, 20
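Further: peptides expressed intracellularly from a pBAD plasmid library in pooled LB shake-flask culture, induced with 0.3% L-arabinose, DNA abundance read by NGS, three biological replicates, DESeq2 with apeglm shrinkage.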

Sequence	shrunken log2 fold change
RRIRKRPPRLPRPRPRPFIPPRP	-0.543
RRIRARPPRLPRPRPRPHPPPRP	0.706
RRIRCRPPRLPRPRPRPLHVPRP	-0.178
RRIRFRPPRLPRPRPRPNAEPRP	0.67
RRIRERPPRLPRPRPRPKFWPRP	0.375
RRIRLRPPRLPRPRPRPEFWPRP	0.417
RRIRLRPPRLPRPRPRPDSGPRP	-0.00166
RRIRIRPPRLPRPRPRPFGVPRP	-0.0635
RRIRYRPPRLPRPRPRPGAPPRP	0.312
RRIRARPPRLPRPRPRPFNEPRP	-0.1
RRIRWRPPRLPRPRPRPIWAPRP	0.00581
RRIRIRPPRLPRPRPRPKYSPRP	-0.216
RRIRLRPPRLPRPRPRPLYNPRP	-0.305
RRIRLRPPRLPRPRPRPNCEPRP	-0.0439
RRIRARPPRLPRPRPRPNQDPRP	0.116
RRIRWRPPRLPRPRPRPTLNPRP	0.139
RRIRARPPRLPRPRPRPKPNPRP	0.736
RRIRIRPPRLPRPRPRPLPWPRP	-0.019
RRIRERPPRLPRPRPRPGCGPRP	0.307
RRIRMRPPRLPRPRPRPIFKPRP	0.161
RRIRRRPPRLPRPRPRPECTPRP	0.517
RRIRDRPPRLPRPRPRPSPKPRP	-0.00809

Sequence	shrunken log2 fold change
RRIRLRPPRLPRPRPRPYMPPRP	-0.509
RRIRRRPPRLPRPRPRPILVPRP	-0.106
RRIRGRPPRLPRPRPRPSKDPRP	0.0908
RRIRCRPPRLPRPRPRPQVLPRP	-0.0248
RRIRLRPPRLPRPRPRPRIAPRP	0.317
RRIRVRPPRLPRPRPRPVCRPRP	-0.0404
RRIRCRPPRLPRPRPRPGYMPRP	-0.836
RRIRIRPPRLPRPRPRPQCVPRP	-0.0555
RRIRCRPPRLPRPRPRPNPNPRP	-0.135
RRIRTRPPRLPRPRPRPCQNPRP	0.031
RRIRHRPPRLPRPRPRPEVCPRP	0.116
RRIRYRPPRLPRPRPRPYEHPRP	-0.0505
RRIRCRPPRLPRPRPRPTPMPRP	0.534
RRIRKRPPRLPRPRPRPSPWPRP	0.141
RRIRWRPPRLPRPRPRPCAHPRP	-0.107
RRIRYRPPRLPRPRPRPCPYPRP	-0.0107
RRIRWRPPRLPRPRPRPRAPPRP	0.84
RRIRARPPRLPRPRPRPVSRPRP	0.661
RRIRMRPPRLPRPRPRPFFRPRP	0.406
RRIRIRPPRLPRPRPRPRPRPRP	0.472
RRIRPRPPRLPRPRPRPFCLPRP	-0.0969
RRIRRRPPRLPRPRPRPNHGPRP	-0.0793

Sequence	shrunken log2 fold change
RRIRERPPRLPRPRPRPKARPRP	-0.276
RRIRNRPPRLPRPRPRPNNMPRP	-0.278
RRIRTRPPRLPRPRPRPGPPPRP	0.404
RRIRIRPPRLPRPRPRPKMRPRP	0.742
RRIRYRPPRLPRPRPRPGKGPRP	-0.0232
RRIRFRPPRLPRPRPRPFRPPRP	-0.466
RRIRGRPPRLPRPRPRPPYVPRP	-0.21
RRIRFRPPRLPRPRPRPDPMPRP	-0.196
RRIRHRPPRLPRPRPRPYMLPRP	-1.66
RRIRERPPRLPRPRPRPKCFPRP	-0.193
RRIRPRPPRLPRPRPRPSFMPRP	-0.377
RRIRGRPPRLPRPRPRPGDEPRP	1.81
RRIRQRPPRLPRPRPRPYGHPRP	-0.473
RRIRDRPPRLPRPRPRPTIDPRP	0.607
RRIRKRPPRLPRPRPRPVNVPRP	0.0147
RRIRTRPPRLPRPRPRPWWPPRP	-0.0247
RRIRTRPPRLPRPRPRPWWNPRP	-0.233
RRIRTRPPRLPRPRPRPTKCPRP	-0.173
RRIRQRPPRLPRPRPRPEWNPRP	-0.175
RRIRDRPPRLPRPRPRPKQEPRP	0.00491
RRIRSRPPRLPRPRPRPKYPPRP	-0.186
RRIRFRPPRLPRPRPRPKMHPRP	0.0482

Sequence	shrunken log2 fold change
RRIRRRPPRLPRPRPRPMLWPRP	-0.0161
RRIRTRPPRLPRPRPRPYFGPRP	-0.589
RRIRMRPPRLPRPRPRPFPNPRP	-0.288
RRIRVRPPRLPRPRPRPNFQPRP	-0.175
RRIRFRPPRLPRPRPRPWHFPRP	-0.542
RRIRQRPPRLPRPRPRPEGNPRP	-0.00965
RRIRGRPPRLPRPRPRPILDPRP	0.277
RRIRSRPPRLPRPRPRPCSDPRP	0.21
RRIRPRPPRLPRPRPRPDTVPRP	-0.207
RRIRARPPRLPRPRPRPQALPRP	0.274
RRIRQRPPRLPRPRPRPFHPPRP	-0.197
RRIRARPPRLPRPRPRPCYSPRP	-0.525
RRIRERPPRLPRPRPRPTHFPRP	-0.382
RRIRKRPPRLPRPRPRPGKPPRP	0.115
RRIRKRPPRLPRPRPRPKFGPRP	0.0786
RRIRMRPPRLPRPRPRPGMRPRP	1.54
RRIRRRPPRLPRPRPRPSISPRP	-0.774
RRIRYRPPRLPRPRPRPHFQPRP	-0.399
RRIRCRPPRLPRPRPRPLEQPRP	0.0367
RRIRKRPPRLPRPRPRPWYPPRP	0.00168
RRIRARPPRLPRPRPRPRKNPRP	0.472
RRIRDRPPRLPRPRPRPQNFPRP	-0.707

Sequence	shrunken log2 fold change
RRIRERPPRLPRPRPRPNNKPRP	-0.849
RRIRKRPPRLPRPRPRPARFPRP	0.396
RRIRYRPPRLPRPRPRPLHDPRP	-0.74
RRIRARPPRLPRPRPRPQRWPRP	0.172
RRIRARPPRLPRPRPRPLRYPRP	-0.00438
RRIRPRPPRLPRPRPRPDQMPRP	0.196
RRIRQRPPRLPRPRPRPCVHPRP	-0.629
RRIRIRPPRLPRPRPRPEEWPRP	-0.128
RRIRDRPPRLPRPRPRPRGHPRP	0.321
RRIRQRPPRLPRPRPRPDDYPRP	0.0372
RRIRARPPRLPRPRPRPVGAPRP	0.731
RRIRDRPPRLPRPRPRPCVQPRP	0.239
RRIRIRPPRLPRPRPRPRQRPRP	0.211
RRIRHRPPRLPRPRPRPWDQPRP	0.0769
RRIRQRPPRLPRPRPRPGGKPRP	-0.0313
RRIRCRPPRLPRPRPRPSAVPRP	-0.0828
RRIRYRPPRLPRPRPRPVNLPRP	-0.0688
RRIRERPPRLPRPRPRPPLQPRP	-0.176
RRIRERPPRLPRPRPRPLFIPRP	-0.0618
RRIRMRPPRLPRPRPRPELGPRP	0.276
RRIRYRPPRLPRPRPRPAATPRP	0.208
